B1: mRNA 3'-end-processing protein YTH1 (Saccharomyces cerevisiae), Q06102 (parent)
chain: MSLIHPDTAKYPFKFEPFLRQEYSFSLDPDRPICEFYNSREGPKSCPRGPLCPKKHVLPIFQNKIVCRHWLRGLCKKNDQCEYLHEYNLRKMPECVFFSKNGYCTQSPDCQYLHIDPASKIPKCENYEMGFCPLGSSCPRRHIKKVFCQRYMTGFCPLGKDECDMEHPQFIIPDEGSKLRIKRDDEINTRKMDEEKERRLNAIINGEV
partner: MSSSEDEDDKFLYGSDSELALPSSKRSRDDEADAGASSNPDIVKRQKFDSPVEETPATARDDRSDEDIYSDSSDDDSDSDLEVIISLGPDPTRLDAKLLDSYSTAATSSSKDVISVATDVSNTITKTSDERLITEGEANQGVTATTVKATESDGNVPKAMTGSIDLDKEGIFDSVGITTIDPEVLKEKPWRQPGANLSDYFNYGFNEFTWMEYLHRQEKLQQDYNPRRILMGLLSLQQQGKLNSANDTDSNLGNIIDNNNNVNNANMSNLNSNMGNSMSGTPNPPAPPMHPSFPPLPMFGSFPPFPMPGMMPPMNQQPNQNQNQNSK

Variants of: B1
Conditions: with fip1_yeast FIP1, P45976

effect of a mutation on the interaction | Variant
decreasing interaction | MSLIHPDTAKYPFKFEPFLRQEYSFSLDPDRPICEFYNSREGPKSCPRGPLCPKKHVLPIFQNKIVCRHWLRGLCKKNDQCEYLHEYNLRKMPECVFFSKNGYCTQSPDCQYLHIDPASKIPKCENYEMRFCPLGSSCPRRHIKKVFCQRYMTGFCPLGKDECDMEHPQFIIPDEGSKLRIKRDDEINTRKMDEEKERRLNAIINGEV [G130R]

Source: IntAct's records for PubMed 12626716
